This note sets out measurements from patent US20200147199A1 (published 2020).

B1: Z043 (antibody, V domains shown)
VH: QVQLVQSGAEVKKPGASVKVSCKTSGYTFTSYYMNWVRQAPGQGLEWMGIIKPSDGSTNYAQKFQGRVTMTRDTSTSTVYMELRSLRSEDTAVYYCGRDSKGWLQLRGDIDYWGQGTLVTVSS
VL: QSALTQPASVSGSPGQSITISCAGTSSDVGNYNLVSWYQQHPGKAPKLLIYEVSKRPSGVSNRFSGSKSGNTASLTISGLQAEDEADYYCCSYAGSSTYVFGTGTEVTVL
B2: Z006 (MEX105_42) (antibody, V domains shown)
VH: EVQLLESGGGLVQPGGSLRLSCAASGFTFKNYAMAWVRQAPGKGLEWVSLLYNSEESTYYADSVKGRFTISRDNSKNTLFLQMNRLRVEDTAVYFCVRDRSNGWSSINLWGRGTLVTVSS
VL: DIQMTQSPSTLSASVGDRVTMTCRASQTISGWLAWYQQKPGKAPKLLIYQASRLESGIPSRFSGSGSGTEFTLTISSLQPDDVATYYCQQYSTFWTFGLGTKVEIK
B3: Z010 (MEX105_88) (antibody, V domains shown)
VH: EVQLLESGGGLVQPGGSLRLSCAASGFTFSNYAMAWVRQAPGKGLEWVSLIYSGDDSTYYADFVKGRFTISRHNSKNTLSLQMNSLRAEDTAIYYCVKDRGTGWSSIVHWGQGTLVTVSS
VL: B2 VL with M21I, G31N, R53S, I58V, V83F, F94Y, L99Q
B4: Z004 (MEX18_89) (antibody, V domains shown)
VH: EVQLLESGGGLVQPGGSLRLTCATSGFTFRDYAMSWVRQAPGKGLEWVSSYSGIDDSTYYADSVKGRFTISRDNSKSTLSLHMNSLRAEDSALYFCAKDRGPRGVGELFDSWGQGTLVTVSS
VL: DIQMTQSPSTLSASVGDRVTITCRASQSISKWLAWYQQKPGKAPKLLIYTTSTLKSGVPSRFSGSGSGTEFTLTISSLQPDDFATYYCQHFYSVPWTFGQGTKVEIK
B5: Z028 (MEX84_p4-53) (antibody, V domains shown)
VH: EVQLLESGGGLVQPGGSLRLSCAASGFTFSAYAMSWVRQAPGKGLEWVSSINGHSDSTYFADSVKGRFTISRDNSKNTLYLQMNSLRAEDTALYYCAKDRLREGIGELFHSWGQGTLVTVSS
VL: B4 VL with V15I, S30T, K31P, L46F, T50Q, T53I, K55E, F91Y, Y92H, V94Y
B6: Z001 (MEX18_21) (antibody, V domains shown)
VH: EVQLLESGGGLVQPGGSRRLSCATSGFSFDTYAMSWLRQAPGKGLEWVSSFSGLDDSTYYADSVKGRFTISRDNSKNTLYLQMNSLRAEDTAIYYCAKDRGPRGIGELFDFWGQGTLVTVSS
VL: B4 VL with K31R, T50K, G57E, Y92H
B7: Z021 (MEX84_p4-23) (antibody, V domains shown)
VH: QVQLQESGPGLVKPSETLSLTCTVSGGSIDTYYWSWIRQTPGKGLEWIGCFYYSVDNHFNPSLESRVTISVDTSKNQFSLKMTSMTASDTAVYYCARNQPGGRAFDYWGPGTLVTVSS
VL: EIVLTQSPATLSLSPGQRATLSCRASQSVSNYFAWYQQKPGQAPRLLIYDTSKRATGTPARFSGSGSGTDFTLTISSLEPEDFAVYYCQERNNWPLTWTFGLGTKVEIK
B8: Z012 (antibody, V domains shown)
VH: QVQLVQSGAEVKKSGASVKVSCKASGYSFTTNYIHWVRQAPGQGPEWMGIINPRGGSTTYAQKFQGRVLMTSDTSTSTVYMELSSLRSEDRAVYYCARGKNHQTTVAVLSWYYGMDVWGQGTTVTVSS
VL: DIQMTQSPSSVSASVGDRVTITCRASQGISSWLAWYQQKPGKAPKLLISAASSLQSGVPSRFSGSGSGTDFTLTISNLQPEDFATYFCQQANSFPYTFGQGTKLEIK
B9: Z035 (BRA112_71) (antibody, V domains shown)
VH: EVQLLESGGGLIQPGGSLRLSCAASGFTFSSYAMSWVRQAPGKGLEWVSGISGSGGASDNGASRYYADSVKGRFSISRDNSKNTVYLQMNSLRAEDTAVYYCAKDRLSGGFGELFQKWGQGTLVTVSS
VL: DIQMTQSPSTLAASVGDRVTITCRASQNINSWLAWYQQKPGKAPKFLIYKASTLESGAPSRFSGSGSGTEFTLTISSLQPDDFATYYCQHYYSYPYTFGQGTKVEIK
B10: Z038 (BRA12_2) (antibody, V domains shown)
VH: EVQLLESGGGLVQPGGSLRLSCEASGFTFSNYAMNWVRQAPGKGLEWVSTLGATDNSGDSTYYVESAKGRFTISRDNSKNTLYLQMNSLRVEDTAVYFCAKDRTGNIGAGTGYFDKWGQGTLVTVSS
VL: DIQMTQSPSTLSASVGDRVTITCRASHRISGWLAWYQQKPGKAPKLLIYQASGLESGVPSRFSGSGYGTEFTLTISSLQADDFATYYCQQYNNYPWTFGQGTKVEIK
B11: Z031 (BRA112_46) (antibody, V domains shown)
VH: EVQLLESGGGLVQPGGSLRLSCVASGFTFGSYGMAWVRQAPGKGLEWISSISSIDPSTYYADSVKGRFTVSRDNSENTLYLHMSSLKVEDTAVYFCAKDRLNGGFGELFASWGQGTLVTVSS
VL: DIQMTQSPSTLSASVGDSVTITCRASQSISSWLAWYQQKPGKAPKFLIHKASSLESGIPSRFSGSGSGTEFTLTINNLQPDDFATYYCQHYHSYPWTFGQGTKVEIK
B12: Z039 (antibody, V domains shown)
VH: EVQLLESGGGLVQPGGSLRLSCAASGYIFDNYAMSWVRQAPGKGLEWVSYINGGGYGTDYADSVKGRFTISRDNSKRILYLQMNSLRVGDTAVYYCAKSPYVGGYGLPGDSWGQGTLVTVSS
VL: EIVLTQSPGTLSLSPGERATLSCRASQTIFFNYLAWYQKKPGQAPRLLVHGASTRATGIPDRFSGSGSGTDFTLTINSLDPEDFAVYYCQQYGDSPPTFGGGTKVEIK
B13: Z014 (antibody, V domains shown)
VH: EVQLLESGGDLVQPGGSLRLSCAASGFTFSSYGMSWVRQAPGKGLEWVSSISGFDPSTYYADSVRGRFTIARDNSKNTLYLQMKSLRVEDTAIYYCAKDRLVRGFGEVLDSWGQGTLVTVSS
VL: DIQMTQSPSSLSASVGDRVTITCRASQGISNYLAWYQQKPREVPKLLIYAASTLHSGVPSRFSGSGSGTDFTLTISGLQPEDVATYYCQKYNSVPWTFGQGTKVEIK
B14: Z024 (antibody, V domains shown)
VH: EVQLVQSGAEVRKPGESLRISCKTSGYTFTSHWVAWVRQMPGKGLEWMGIIYPGDSDTRYSPSFQGQISISADKSINTAYLQWSSLKASDTGIYYCARHDGRGYCSPTRCFFSGMDVWGQGTTVTVSS
VL: DIQLTQSPSSLSASVGDRVTITCRASQSISNYLNWYQQKPGKAPNLLIYAASSLQSGVPSRFSGSGSGTDFTLTISSLQPEDYAIYYCQQTDRTPLTFGQGTKVEIK
B15: Z037 (antibody, V domains shown)
VH: QVQLQESGPGLVKPSETLSLTCSVSGYFISSGHYWGWIRQSPGKGLEWIASIYQSGSKFQTGNTYYNPSLESRVTISMDTSKNQFSLKLSSVTAADTAVYFCARDARSRSWDRTGFFGPWGQGILVTVSS
VL: EIVLTQSPGTLSLSPGERATLSCRASQSLSSSFLAWYQQKPGQSPRLLIYGTSSRDTGIPDRFSGSGSGTDFTLTISRLEPEDSAVYYCQQYGSSWGTFGQGTKLEIK
B16: Z041 (antibody, V domains shown)
VH: QVQLVQSGAEVKKPGSSVRLSCKASGGSYSTYAISWVRQAPGQGLEWMGRIIPSLGKTHLAQKFQGRVTFTADESTTTVYMILSSLKSEDTALYYCATPDWQYSSAYSLDHWGQGTLVTVSS
VL: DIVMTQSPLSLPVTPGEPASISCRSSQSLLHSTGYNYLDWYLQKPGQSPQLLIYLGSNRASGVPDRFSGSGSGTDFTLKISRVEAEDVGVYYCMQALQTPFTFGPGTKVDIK
B17: Z018 (antibody, V domains shown)
VH: QVQLVQSGPGVKKPGASVKVSCKASGYIFSDYYILWVRQAPGQGLEYMGWMNPISGFTHYAQNFQGRVTMTRDTSISTAYMELTRLASDDTAVYYCARGGRINSPLGFDPWGQGTLVTVSS
VL: EIVLTQSPATLSLSPGERATLSCRASQSISTFSLAWYQQKFGQAPRLLIYGASSRATGIPDRFSGSGSGTDFTLTISRLEPEDFAVYYCQQYVSSPLTFGGGTKVEIK
B18: Z042 (antibody, V domains shown)
VH: QVQLQESGPGLVKPSETLSLSCTVSSGSISNYYWNWIRQPPGKGLEWIGYIYYSGSISYNPSLKSRVTISVDTSKNQLSLKLNSVTAADTAVYYCARGPDNRYWGQGTLVTVSS
VL: EIVMTQSPATLSVSPGERVTLSCRASQSVSYNLAWHQQKPGQAPRLLIYGASTRATGIPARFSGSGSGTEFTLTISNMQSEDFAVYYCQQYNNWPPVFTFGPGTKVDIK

Usually EC50 stands for the concentration that produces a half-maximal response.

Positions count from the first letter of the chain named.

The assay concerns the target ZIKV E Domain III (ZEDIII), polyhistidine-AviTag, produced in HEK-293-6E cells. The assay can be described thus: ELISA. On the technique in general: ELISA stands for enzyme-linked immunosorbent assay.
Molecule B1 registered a half-maximal effective concentration (EC50) of 0.188 µg/mL.

B2 came in with an EC50 of 0.0351 µg/mL.

Regarding B3, the EC50 was over 0.4 µg/mL.

In the case of B4, the EC50 stood at 0.0237 µg/mL.

In turn, B5 registered an EC50 of 0.0371 µg/mL.

For B6, the EC50 was found to be 0.0206 µg/mL.

B7 returned an EC50 of 0.0554 µg/mL.

In the case of B8, the response was half-maximal at 0.2 µg/mL (EC50).

Consider B9, for which it took 0.0284 µg/mL to reach a half-maximal effect (EC50).

Regarding B10, it took 0.0581 µg/mL to reach a half-maximal effect (EC50).

Molecule B11 yielded a concentration giving a half-maximal response (EC50) of 0.0341 µg/mL.

For the molecule B12, the EC50 was determined as 0.0885 µg/mL.

B13 displayed a concentration for a half-maximal effect (EC50) of 0.106 µg/mL. The EC50 values of the last two molecules are within 1.5-fold of each other.

As to B14, the EC50 was over 4 µg/mL.

B15 returned a concentration for a half-maximal effect (EC50) of over 0.4 µg/mL.

B16: a half-maximal effect (EC50) was put at 0.218 µg/mL.

B17 came in with an EC50 of 0.0742 µg/mL.

Turning to B18, the response was half-maximal at 0.0586 µg/mL (EC50).
